Results as given in the supplement of paper PMC9732359.
± gives the uncertainty stated by the source.

Test: protein stability index of a GFP-peptide fusion (yeast GPS) (PSI 1-4); higher = more stable; sorted into four equal gates, so the index is relative within each strain
How it was run: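 Tiled yeast protein peptides of 17 residues were each joined downstream of GFP, on plasmids that also express Cherry. The pooled library was maintained in yeast, and mid-log cultures in leucine-free medium were sorted into four equal gates on the GFP/Cherry ratio. Plasmids from every gate were amplified by PCR and sequenced on Illumina, with barcodes linking reads to strains. The protein stability index of a peptide is its gate-number-weighted read frequency summed over the gates.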

FDLVRNIVKQNEGIDLD [SMC2]
protein stability index (doa10∆): 3.11 ± 0.13
protein stability index (pdr5∆): 3.51 ± 0.12
protein stability index (san1∆): 3.24 ± 0.081
protein stability index (ubr1∆): 3.45 ± 0.1

FDQAGKKVSRRNARATR [RPL13A]
protein stability index (doa10∆): 2.51 ± 0.073
protein stability index (pdr5∆): 3.36 ± 0.057
protein stability index (san1∆): 1.92 ± 0.12
protein stability index (ubr1∆): 2.34 ± 0.067

FDSLRNFIVHSPMLKRI [GRR1]
protein stability index (doa10∆): 2.89 ± 0.084
protein stability index (pdr5∆): 2.47 ± 0.079
protein stability index (san1∆): 2.8 ± 0.074
protein stability index (ubr1∆): 2.64 ± 0.076

FEEDSDLALPPPPPPPP [PRP8]
protein stability index (doa10∆): 3.08 ± 0.063
protein stability index (pdr5∆): 3.25 ± 0.066
protein stability index (san1∆): 3.27 ± 0.072
protein stability index (ubr1∆): 3.23 ± 0.062

FEIIFPPTDTNVEESVS [POP5]
protein stability index (doa10∆): 2.91 ± 0.091
protein stability index (pdr5∆): 2.68 ± 0.085
protein stability index (san1∆): 2.47 ± 0.071
protein stability index (ubr1∆): 3.09 ± 0.12

FEKKELQEKFLNQIATL [IRR1]
protein stability index (doa10∆): 1.08 ± 0.056
protein stability index (pdr5∆): 1.23 ± 0.057
protein stability index (san1∆): 1.15 ± 0.1
protein stability index (ubr1∆): 1.04 ± 0.062

FEKVGSHLYKARLDGHD [RPN14]
protein stability index (doa10∆): 2.92 ± 0.26
protein stability index (pdr5∆): 3.51 ± 0.19
protein stability index (ubr1∆): 3.31 ± 0.14

FELVSDLSYIEFLFESL [ECM29]
protein stability index (doa10∆): 2.88 ± 0.067
protein stability index (pdr5∆): 2.74 ± 0.077
protein stability index (san1∆): 2.97 ± 0.062
protein stability index (ubr1∆): 2.87 ± 0.049

FESLPLKSAENSGKQQY [SWP82]
protein stability index (doa10∆): 3.17 ± 0.063
protein stability index (pdr5∆): 3.3 ± 0.057
protein stability index (san1∆): 3.01 ± 0.055
protein stability index (ubr1∆): 3.2 ± 0.056

FFDGSASSTPIPVLGKP [YOR098C/NUP1]
protein stability index (doa10∆): 2.6 ± 0.044
protein stability index (pdr5∆): 2.94 ± 0.04
protein stability index (san1∆): 2.72 ± 0.036
protein stability index (ubr1∆): 2.67 ± 0.026

FFKPLDYITEAVFKIVL [SNU114]
protein stability index (doa10∆): 2.06 ± 0.047
protein stability index (pdr5∆): 1.95 ± 0.055
protein stability index (san1∆): 1.47 ± 0.073
protein stability index (ubr1∆): 1.88 ± 0.035

FFYLRISKKLQFSYLSS [PCI8]
protein stability index (doa10∆): 1.22 ± 0.076
protein stability index (pdr5∆): 1.24 ± 0.059
protein stability index (san1∆): 1.24 ± 0.11
protein stability index (ubr1∆): 1.33 ± 0.044

FGFSSSGTAATGAASNQ [YOR098C/NUP1]
protein stability index (doa10∆): 2.69 ± 0.11
protein stability index (pdr5∆): 3.41 ± 0.13
protein stability index (ubr1∆): 3.31 ± 0.07

FGKLLQAYQFLNTFGSK [ITC1]
protein stability index (doa10∆): 1.5 ± 0.064
protein stability index (pdr5∆): 1.26 ± 0.073
protein stability index (san1∆): 1.19 ± 0.12
protein stability index (ubr1∆): 1.31 ± 0.094

FGNIQKVVNFWLLHNGF [RPO21]
protein stability index (doa10∆): 2.26 ± 0.18
protein stability index (pdr5∆): 1.83 ± 0.099
protein stability index (san1∆): 1.99 ± 0.19
protein stability index (ubr1∆): 1.41 ± 0.073

FGNSLICEDPETAKKIT [SMC2]
protein stability index (doa10∆): 2.82 ± 0.1
protein stability index (pdr5∆): 2.74 ± 0.084
protein stability index (san1∆): 2.62 ± 0.24
protein stability index (ubr1∆): 2.91 ± 0.075

FGNTSTSSAPAQNQGMF [YGL172W/NUP49]
protein stability index (doa10∆): 3.3 ± 0.15
protein stability index (pdr5∆): 3.4 ± 0.24

FGPIKVELPTKETVEIG [FAS1]
protein stability index (doa10∆): 3.01 ± 0.084
protein stability index (pdr5∆): 3.28 ± 0.07
protein stability index (san1∆): 3.23 ± 0.067
protein stability index (ubr1∆): 3.02 ± 0.066

FGVPNSSKNETSKPVFS [YLR335W/NUP2]
protein stability index (doa10∆): 2.32 ± 0.035
protein stability index (pdr5∆): 2.97 ± 0.13
protein stability index (san1∆): 2.55 ± 0.13
protein stability index (ubr1∆): 3.15 ± 0.068

FHKYRLKRNSWPKTRGV [RPL2A]
protein stability index (doa10∆): 2.44 ± 0.099
protein stability index (pdr5∆): 2.71 ± 0.1
protein stability index (san1∆): 2.83 ± 0.12
protein stability index (ubr1∆): 2.31 ± 0.091

FHNAVFNSFRRFKSQFL [QCR8]
protein stability index (doa10∆): 2.31 ± 0.068
protein stability index (pdr5∆): 1.52 ± 0.046
protein stability index (san1∆): 1.6 ± 0.088
protein stability index (ubr1∆): 1.54 ± 0.046

FHSEISPDSTVNRSVVV [YAR002W/NUP60]
protein stability index (doa10∆): 1.75 ± 0.11
protein stability index (pdr5∆): 1.76 ± 0.052
protein stability index (san1∆): 1.76 ± 0.13
protein stability index (ubr1∆): 2.16 ± 0.059

FICTTFRTDMLQVADKF [SMC3]
protein stability index (doa10∆): 1.38 ± 0.086
protein stability index (pdr5∆): 2.31 ± 0.12
protein stability index (san1∆): 1.6 ± 0.089
protein stability index (ubr1∆): 1.67 ± 0.075

FILELEHKTPELISFKE [YIL149C/MLP2]
protein stability index (doa10∆): 2.86 ± 0.081
protein stability index (pdr5∆): 3.05 ± 0.086
protein stability index (san1∆): 2.96 ± 0.1
protein stability index (ubr1∆): 3.29 ± 0.086

FIPNKQLNCVIDRVNGI [RPN7]
protein stability index (doa10∆): 2.47 ± 0.13
protein stability index (pdr5∆): 2.75 ± 0.21
protein stability index (san1∆): 2.73 ± 0.18
protein stability index (ubr1∆): 3.08 ± 0.18

FIVSGTASDQLFGMCES [PUP3]
protein stability index (doa10∆): 2.41 ± 0.046
protein stability index (pdr5∆): 2.46 ± 0.045
protein stability index (san1∆): 2.63 ± 0.056
protein stability index (ubr1∆): 2.53 ± 0.039

FKGTDFVHSVKKFLRVR [SRB4]
protein stability index (doa10∆): 2.66 ± 0.077
protein stability index (pdr5∆): 2.64 ± 0.066
protein stability index (san1∆): 2.83 ± 0.058
protein stability index (ubr1∆): 2.87 ± 0.054

FKKLNSKNMSKSPSLTA [YMR153W/NUP53]
protein stability index (doa10∆): 2.21 ± 0.065
protein stability index (pdr5∆): 2.38 ± 0.048
protein stability index (san1∆): 2.19 ± 0.067
protein stability index (ubr1∆): 2.13 ± 0.071

FKMNEIVPLHSPFLMGH [SEC65]
protein stability index (doa10∆): 2.71 ± 0.067
protein stability index (pdr5∆): 2.59 ± 0.072
protein stability index (san1∆): 2.59 ± 0.082
protein stability index (ubr1∆): 2.62 ± 0.057

FKNMGNTCYLNATLQAL [UBP6]
protein stability index (doa10∆): 1.8 ± 0.083
protein stability index (pdr5∆): 1.92 ± 0.083
protein stability index (san1∆): 1.55 ± 0.12
protein stability index (ubr1∆): 1.83 ± 0.071

FKQIKSADCELLGIDAT [RPO31]
protein stability index (doa10∆): 1.62 ± 0.083
protein stability index (pdr5∆): 1.8 ± 0.089
protein stability index (san1∆): 1.42 ± 0.16
protein stability index (ubr1∆): 2.08 ± 0.053

FKSLIDEDLLDTQTFSV [YGL172W/NUP49]
protein stability index (doa10∆): 3.17 ± 0.17
protein stability index (pdr5∆): 3.05 ± 0.25
protein stability index (ubr1∆): 3.76 ± 0.26

FKSPIDNSESHPFIPLL [RRP6]
protein stability index (doa10∆): 1.95 ± 0.07
protein stability index (pdr5∆): 2.23 ± 0.053
protein stability index (san1∆): 2.03 ± 0.075
protein stability index (ubr1∆): 1.82 ± 0.052

FKSVLPIVLLNTLRKCY [UBP6]
protein stability index (doa10∆): 1.26 ± 0.11
protein stability index (pdr5∆): 1.23 ± 0.071
protein stability index (san1∆): 1.12 ± 0.16
protein stability index (ubr1∆): 1.18 ± 0.12

FLDSQRVWAEYATKRQE [PRP8]
protein stability index (doa10∆): 1.54 ± 0.078
protein stability index (pdr5∆): 2 ± 0.07
protein stability index (san1∆): 1.92 ± 0.097
protein stability index (ubr1∆): 2.07 ± 0.083

FLKEVLSDLSSPVQDWN [YML103C/NUP188]
protein stability index (doa10∆): 2.92 ± 0.088
protein stability index (pdr5∆): 3.03 ± 0.097
protein stability index (san1∆): 2.76 ± 0.11
protein stability index (ubr1∆): 2.96 ± 0.068

FLKLANGGKFSKSNLIH [RGR1]
protein stability index (doa10∆): 2.65 ± 0.049
protein stability index (pdr5∆): 2.55 ± 0.061
protein stability index (san1∆): 2.87 ± 0.077
protein stability index (ubr1∆): 2.79 ± 0.059

FLMGIFNSVVNLSRYPK [MTR3]
protein stability index (doa10∆): 2.6 ± 0.091
protein stability index (pdr5∆): 2.5 ± 0.089
protein stability index (san1∆): 2.49 ± 0.13
protein stability index (ubr1∆): 2.32 ± 0.13

FLNTPNNNINENELFND [SSN2]
protein stability index (doa10∆): 2.94 ± 0.059
protein stability index (pdr5∆): 3.06 ± 0.05
protein stability index (san1∆): 2.86 ± 0.054
protein stability index (ubr1∆): 2.88 ± 0.055

FLQRVRVWEYRQKNVIH [RPL15A]
protein stability index (doa10∆): 1.77 ± 0.24
protein stability index (pdr5∆): 1.72 ± 0.085
protein stability index (ubr1∆): 2.02 ± 0.19

FLSLLNLATKGMVKLNE [REC8]
protein stability index (doa10∆): 2.77 ± 0.07
protein stability index (pdr5∆): 1.59 ± 0.055
protein stability index (san1∆): 1.6 ± 0.078
protein stability index (ubr1∆): 1.58 ± 0.045

FLVLYDVKTAEEASQLI [NUT1]
protein stability index (doa10∆): 1.45 ± 0.047
protein stability index (pdr5∆): 1.93 ± 0.077
protein stability index (san1∆): 2.78 ± 0.061
protein stability index (ubr1∆): 3.01 ± 0.047

FMAFINACAKYGRDDME [ISW2]
protein stability index (doa10∆): 2.77 ± 0.2

FMDVITLDATNENFRLV [RPS4A]
protein stability index (pdr5∆): 3.44 ± 0.28
protein stability index (san1∆): 2.72 ± 0.25
protein stability index (ubr1∆): 3 ± 0.18

FMGTAFNQEGDYNFKYG [PRP8]
protein stability index (doa10∆): 3.02 ± 0.11
protein stability index (pdr5∆): 3.1 ± 0.09
protein stability index (san1∆): 3.34 ± 0.098
protein stability index (ubr1∆): 3.18 ± 0.072

FNIISMTLKEMYQMITM [SMC4]
protein stability index (doa10∆): 1.92 ± 0.074
protein stability index (pdr5∆): 1.97 ± 0.054
protein stability index (san1∆): 2.22 ± 0.075
protein stability index (ubr1∆): 2.15 ± 0.042

FNKYADPTLTTTTSFTT [RPN4]
protein stability index (doa10∆): 2.35 ± 0.035
protein stability index (pdr5∆): 2.57 ± 0.042
protein stability index (san1∆): 2.26 ± 0.04
protein stability index (ubr1∆): 2.48 ± 0.029

FNNGDDDDYGDEEDPNE [RPC31]
protein stability index (doa10∆): 3.25 ± 0.15
protein stability index (pdr5∆): 2.36 ± 0.17
protein stability index (san1∆): 2.98 ± 0.088

FNRALDQSISKLQSWDK [NNF1]
protein stability index (doa10∆): 1.63 ± 0.066
protein stability index (pdr5∆): 1.49 ± 0.068
protein stability index (san1∆): 1.51 ± 0.085
protein stability index (ubr1∆): 1.78 ± 0.051

FNTEAEQTVSAVTEATS [RGR1]
protein stability index (doa10∆): 2.67 ± 0.28
protein stability index (pdr5∆): 3.41 ± 0.15

FNYQGDELVLNFENDNE [REC8]
protein stability index (doa10∆): 2.9 ± 0.18
protein stability index (pdr5∆): 3.25 ± 0.17
protein stability index (san1∆): 2.79 ± 0.11
protein stability index (ubr1∆): 2.63 ± 0.068

FPESIWKDFTVEIAFLF [YCG1]
protein stability index (doa10∆): 2.25 ± 0.06
protein stability index (pdr5∆): 2.43 ± 0.05
protein stability index (san1∆): 2.33 ± 0.067
protein stability index (ubr1∆): 2.29 ± 0.049

FPFVLKVDNDLRIELQS [SRB8]
protein stability index (doa10∆): 2.98 ± 0.12
protein stability index (pdr5∆): 3.05 ± 0.1
protein stability index (san1∆): 2.61 ± 0.098
protein stability index (ubr1∆): 3.31 ± 0.14
